# Measurements taken from paper PMC7042059 (FEBS letters, 2019).
# Several values for one entry are separate records, joined by “and”; a condition that tells them apart may be missing. Identical values can stand only once.
# Target: the molecule itself
# Experiment: SEC
protein,measurement,value
PKM2 R399E (enzyme) not shown,stoichiometry N,4 and 2
